Reference: patent US20040091478A1

B1: soluble type CD14 purified from human serum (receptor)
chain: TTPEPCELDDEDFRCVCNFSEPQPDWSEAFQCVSAVEVEIHAGGLNLEPFLKRVDADADPRQYADTVKALRVRRLTVGAAQVPAQLLVGALRVLAYSRLKELTLEDLKITGTMPPLPLEATGLALSSLRLRNVSWATGRSWLAELQQWLKPGLKVLSIAQAHSPAFSCEQVRAFPALTSLDLSDNPGLGERGLMAALCPHKFPAIQNLALRNTGIETPTGVCAALAAAGVQPHSLDLSHNSLRATVNPSAPRCMWSSALNSLNLSFAGLEQVPKGLPAKLRVLDLSCNRLNRAPQPDELPEVDNLTLDGNPFLVPGTALPHEGSMNSGVVPACARSTLSVGVSGTLVL
B2: rhesus monkey soluble type CD14 (in serum) (receptor)
chain: TTPEPCELDDEDFRCVCNFSEPHPDWSEAFQCVSAVEVEIRVGGLSLEPFLTRVDPDADPRQYADTIKALRVRRLTVGAAQVPAQLLVGALRVLAYSRLQELTLEDLEITGTMPPLPLEATGLALSSLRLHNVSWATGRSWLAELQQWLKPGLKVLSIAQAHSPAFSCEQVRAFPALTSLDLSDNPGLGERGLIAALCPHKFPALQNLALRNTGMETPTGVCAALAAAGVQPHSLDLSHNSLRATANPSAPRCMWSSALNSLNLSFAGLEQVPKGLPAKLRVLDLSCNRLNRRPRPDELPQVDNLALDGNPFLVPGTALPQEGSMN
B3: crab-eating macaque soluble type CD14 (in serum) (receptor)
chain: B2 chain
B4: rabbit soluble type CD14 (in New Zealand white rabbit serum) (receptor, UniProt Q28680 18-342, looked up)
chain: STDTPEPCELDDDDIRCVCNFSDPQPDWSSALQCMPAVQVEMWGGGHSLEQFLRQADLYTDQRRYADVVKALRVRRLTVGAVQVPAPLLLGVLRVLGYSRLKELALEDIEVTGTAPPPPPLEATGPALSTLSLRNVSWPKGGAWLSELQQWLKPGLQVLNIAQAHTLAFSCEQVRTFSALTTLDLSENPGLGERGLVAALCPHKFPALQDLALRNAGMKTLQGVCAALAEAGVQPHHLDLSHNSLRADTQRCIWPSALNSLNLSFTGLQQVPKGLPAKLNVLDLSCNKLNRAPQPGELPKVVNLSLDGNPFLVPGASKLQEDLTN

Molecular target: F1024-1-3 antibody (monoclonal antibody produced by hybridoma F1024-1-3, Accession No. FERM BP-7511)
Assay: competition ELISA: 4-fold diluted serum mixed with 1 µg/mL peroxidase-labeled F1024-1-3, added to immobilised human CD14(1-356)

Row | Binder | inhibition ratio of binding of F1024-1-3 antibody to human CD14 [%]
1 | B1 | 83
2 | B2 | 44
3 | B3 | 57
4 | B4 | 52
